Target: T1, soluble extracellular domain of HER2/neu (ECD) (UniProt P04626 23-652, limits assumed)
T1 construct: extracellular domain; Immobilized on the IAsys microcuvette; also called soluble HER2/neu antigen
Assay: IAsys optical biosensor, HER2/neu ECD immobilized on the cuvette

B1: RANTES.Her2.IgG3 (other)
chain: SPYSSDTTPCCFAYIARPLPRAHIKEYFYTSGKCSNPAVVFVTRKNRQVCANPEKKWVREYINSLEMS
Kd: 53 nM

Source: patent US20030171551A1 (published 2003)
